Measurements: publication PMC8291384 (Nature structural & molecular biology, 2020)

Biological target: T1, mouse RAG1 (aa 265-1040) E962Q, His6-MBP fusion (mouse, UniProt P15919 265-1040, E962Q)
T1 sequence (looked up): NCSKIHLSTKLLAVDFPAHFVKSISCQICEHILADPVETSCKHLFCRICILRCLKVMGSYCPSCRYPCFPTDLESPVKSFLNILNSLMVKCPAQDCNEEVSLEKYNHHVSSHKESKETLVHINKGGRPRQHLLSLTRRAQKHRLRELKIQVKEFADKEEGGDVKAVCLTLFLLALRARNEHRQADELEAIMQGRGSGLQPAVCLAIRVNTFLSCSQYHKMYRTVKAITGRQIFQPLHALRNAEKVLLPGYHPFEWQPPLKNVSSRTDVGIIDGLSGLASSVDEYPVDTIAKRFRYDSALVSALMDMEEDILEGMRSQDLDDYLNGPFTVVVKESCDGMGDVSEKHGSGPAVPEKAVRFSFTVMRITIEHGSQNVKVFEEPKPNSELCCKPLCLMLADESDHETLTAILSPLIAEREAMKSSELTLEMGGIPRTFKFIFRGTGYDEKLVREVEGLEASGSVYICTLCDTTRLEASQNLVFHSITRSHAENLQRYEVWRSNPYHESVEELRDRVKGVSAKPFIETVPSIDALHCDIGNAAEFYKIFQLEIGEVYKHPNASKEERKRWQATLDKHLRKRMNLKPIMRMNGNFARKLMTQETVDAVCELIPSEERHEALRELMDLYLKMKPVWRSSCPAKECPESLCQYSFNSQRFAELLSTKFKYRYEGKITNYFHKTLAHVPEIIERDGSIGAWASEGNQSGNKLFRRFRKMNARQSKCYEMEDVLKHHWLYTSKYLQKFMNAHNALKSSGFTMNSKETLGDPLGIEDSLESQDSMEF
Assay: cryo-EM structure

B1: mouse RAG2 (aa 1-520) T490A, His6-MBP fusion (domain or fragment, UniProt P21784 1-520, looked up)
chain: MSLQMVTVGHNIALIQPGFSLMNFDGQVFFFGQKGWPKRSCPTGVFHFDIKQNHLKLKPAIFSKDSCYLPPLRYPATCSYKGSIDSDKHQYIIHGGKTPNNELSDKIYIMSVACKNNKKVTFRCTEKDLVGDVPEPRYGHSIDVVYSRGKSMGVLFGGRSYMPSTQRTTEKWNSVADCLPHVFLIDFEFGCATSYILPELQDGLSFHVSIARNDTVYILGGHSLASNIRPANLYRIRVDLPLGTPAVNCTVLPGGISVSSAILTQTNNDEFVIVGGYQLENQKRMVCSLVSLGDNTIEISEMETPDWTSDIKHSKIWFGSNMGNGTIFLGIPGDNKQAMSEAFYFYTLRCSEEDLSEDQKIVSNSQTSTEDPGDSTPFEDSEEFCFSAEATSFDGDDEFDTYNEDDEDDESVTGYWITCCPTCDVDINTWVPFYSTELNKPAMIYCSHGDGHWVHAQCMDLEERTLIHLSEGSNKYYCNEHVQIARALQAPKRNPPLQKPPMKSLHKKGSGKVLTPAKKS
  binding result: binds
